Legend:
[1] = test system: factor VIII expressed by F8-BDD-299
[2] = test system: factor VIII expressed by F8-BDD (normal unmodified B-domain-deleted F8)
[3] = test system: factor VIII expressed by F8-BDD-N8

In the case of Thrombin (FIIa), the “activity of factor VIII after thrombin was added (substrate luminescence assay, every two minutes)” value (shortened to “activity of factor VIII”) [1] is reported as “From the second minute, the activity of factor VIII expressed by F8-BDD-299 is significantly increased”, the “activity of factor VIII” value [2] is reported as “the activity of factor VIII expressed by F8-BDD and F8-BDD-N8 is slightly increased” and the “activity of factor VIII” value [3] is reported as “the activity of factor VIII expressed by F8-BDD and F8-BDD-N8 is slightly increased”.
